# Data from article PMC11910589.
# Read-outs that look alike come from different tables or passages of the source.
# T1: dP75 PWWP (Drosophila melanogaster, UniProt Q9VAA9 9-90)
# T1 sequence: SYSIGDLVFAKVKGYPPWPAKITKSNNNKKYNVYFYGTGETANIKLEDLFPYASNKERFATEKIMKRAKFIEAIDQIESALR
# T2: dP75 PWWP Y23A (Drosophila melanogaster, UniProt Q9VAA9 9-90, Y23A)
# T2 sequence: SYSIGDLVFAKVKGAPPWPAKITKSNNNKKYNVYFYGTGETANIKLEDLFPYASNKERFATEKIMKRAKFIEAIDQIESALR
# T3: dP75 PWWP E48A (Drosophila melanogaster, UniProt Q9VAA9 9-90, E48A)
# T3 sequence: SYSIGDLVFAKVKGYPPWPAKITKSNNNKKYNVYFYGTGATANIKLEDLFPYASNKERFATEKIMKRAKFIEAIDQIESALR
# T4: dP75 PWWP F43A (Drosophila melanogaster, UniProt Q9VAA9 9-90, F43A)
# T4 sequence: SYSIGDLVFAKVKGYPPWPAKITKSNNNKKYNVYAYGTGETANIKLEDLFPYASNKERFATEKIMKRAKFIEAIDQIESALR
# T5: dP75 PWWP K53A (Drosophila melanogaster, UniProt Q9VAA9 9-90, K53A)
# T5 sequence: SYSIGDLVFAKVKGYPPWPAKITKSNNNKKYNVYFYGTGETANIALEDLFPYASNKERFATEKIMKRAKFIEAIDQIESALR
# T6: dP75 PWWP K38A (Drosophila melanogaster, UniProt Q9VAA9 9-90, K38A)
# T6 sequence: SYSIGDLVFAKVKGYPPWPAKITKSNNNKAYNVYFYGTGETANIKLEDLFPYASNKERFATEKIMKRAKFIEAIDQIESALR
# How the values were obtained:
# Assay in all cases: fluorescence polarization
# dP75 PWWP [1] = biological target: T1, dP75 PWWP
# dP75 PWWP [2] = biological target: T1, dP75 PWWP; remark: listed apart in the source
# dP75 PWWP [3] = biological target: T1, dP75 PWWP; remark: listed apart in the source
# dP75 PWWP Y23A = biological target: T2, dP75 PWWP Y23A
# dP75 PWWP E48A = biological target: T3, dP75 PWWP E48A
# dP75 PWWP F43A = biological target: T4, dP75 PWWP F43A
# dP75 PWWP K53A = biological target: T5, dP75 PWWP K53A
# LEDGF/p75 PWWP = LEDGF/p75 PWWP (Homo sapiens, UniProt O75475 4-89)
# dP75 PWWP K38A = biological target: T6, dP75 PWWP K38A
# dP75 PWWP [4] = biological target: T1, dP75 PWWP; remark: listed apart in the source
# LEDGF/p75 PWWP, sequence (O75475 4-89): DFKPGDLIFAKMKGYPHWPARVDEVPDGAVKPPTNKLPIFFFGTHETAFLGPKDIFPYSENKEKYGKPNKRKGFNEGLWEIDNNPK
binder,measurement,setting,value
12 bp poly(G:C) (dsDNA) DNA 1: GGGGGGGGGGGG DNA 2: CCCCCCCCCCCC,binding result,dP75 PWWP [1],no binding
CCCCCCCCCCCC (ssDNA) [FAM-12C (polyC)],Kd,dP75 PWWP [1],151 ± 38.9 µM
GGGGGGGGGGGG (ssDNA) [FAM-12G (polyG)],binding result,dP75 PWWP [2],no binding
20 bp random (dsDNA) DNA 1: CGATCTGCGTCAGCTGTAGC DNA 2: GCTACAGCTGACGCAGATCG,binding result,dP75 PWWP [1],no binding
12 bp poly(A:T) (dsDNA) DNA 1: TTTTTTTTTTTT DNA 2: AAAAAAAAAAAA,Kd,dP75 PWWP [3],18.2 ± 1.17 µM
TTTTTTTTTTTT (ssDNA) [FAM-12T (polyT)],binding result,dP75 PWWP Y23A,no binding
same,Kd,dP75 PWWP E48A,64.2 ± 2.8 µM
same,binding result,dP75 PWWP F43A,no binding
same,Kd,dP75 PWWP K53A,109 ± 2.9 µM
same,Kd,dP75 PWWP [1],24.2 ± 1.1 µM
same,binding result,LEDGF/p75 PWWP,no binding
same,Kd,dP75 PWWP K38A,60.9 ± 0.9 µM
AAAAAAAAAAAA (ssDNA) [FAM-12A (polyA)],binding result,dP75 PWWP [4],no binding
